# Article PMC7432041, “[…], Artificial Tetrameric Lectins: A Tool to Screen Ligand and Pathogen Interactions” (International Journal of Molecular Sciences, 2020)
# Columns and labels:
# Experiment in all cases: SEC-MALS; SEC-LS (static and dynamic light scattering, refractive index, absorbance at 280 and 550 nm); Shodex KW 802.5 column at 4 °C, 25 mM Tris pH 7.5, 150 mM NaCl, 4 mM CaCl2, 0.5 mL/min; 50 µL injected
# [1] = target: DC-SIGNR Fc-CRD (fusion of the DC-SIGNR CRD with human IgG1 Fc) (human)
# Cy3-NeutrAvidin = target: T1, Cy3-NeutrAvidin (UniProt P02701 25-152, Cy3 (Cy3-NHS ester, degree of labelling 0.5)); conditions: both partners purified
# T1 construct: NeutrAvidin, a deglycosylated tetrameric protein derived from avidin; subunit MW = 14.5 kDa as printed; Deglycosylated avidin; also called NeutrAvidin-Cy3; tetrameric NeutrAvidin; source: bought: ThermoFisher Scientific; labelled with Cy3-NHS ester
# [2] = target: the molecule itself
# T1 sequence (P02701 25-152): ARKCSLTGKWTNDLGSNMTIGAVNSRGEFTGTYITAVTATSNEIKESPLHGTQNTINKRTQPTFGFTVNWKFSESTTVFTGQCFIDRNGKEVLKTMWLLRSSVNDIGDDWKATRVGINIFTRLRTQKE
molecule,measurement,setting,value
DC-SIGNR Fc-CRD (fusion of the DC-SIGNR CRD with human IgG1 Fc) (Fc fusion),stoichiometry N,[1],2
"Biotin sortagged DC-SIGNR-CRD (biotin-LPRT-GGG-DC-SIGNR CRD) (domain or fragment, human, biotin on the N-terminus (biotin-LPRT peptide joined by sortase A), sortase A motif of the biotin-LPRT-OMe peptide, transferred onto the N-terminal glycines; poly-Gly extension at the N-terminus of the CRD, exposed after factor Xa cleavage; DC-SIGNR (L-SIGN), human, CRD, amino acids 264 to 399; optimized synthetic gene in pET30-b between XbaI and HindIII; Theoretical mass 16.5 kDa (ESI-MS 16,556); also called biotin-CRD; biotinylated DC-SIGNR CRD; source: …) LPRTGGGLCRHCPKDWTFFQGNCYFMSNSQRNWHDSVTACQEVRAQLVVIKTAEEQNFLQLQTSRSNRFSWMGLSDLNQEGTWQWVDGSPLSPSFQRYWNSGEPNNSGNEDCAEFSGSGWNDNRCDVDNYWICKKPAACFRDE",stoichiometry N,Cy3-NeutrAvidin,4 biotin-CRD per NeutrAvidin tetramer (4:4 by chains)
"DC-SIGNR ECD (natural extracellular domain of human DC-SIGNR) (domain or fragment, UniProt Q9H2X3 78-399, looked up, DC-SIGNR (L-SIGN), human, extracellular domain, amino acids 78 to 399; optimized synthetic gene in pET30-b between NdeI and HindIII; also called natural tetrameric DC-SIGNR ECD; L-SIGN ECD) SLSQEQSEQDAIYQNLTQLKAAVGELSEKSKLQEIYQELTQLKAAVGELPEKSKLQEIYQELTRLKAAVGELPEKSKLQEIYQELTRLKAAVGELPEKSKLQEIYQELTRLKAAVGELPEKSKLQEIYQELTELKAAVGELPEKSKLQEIYQELTQLKAAVGELPDQSKQQQIYQELTDLKTAFERLCRHCPKDWTFFQGNCYFMSNSQRNWHDSVTACQEVRAQLVVIKTAEEQNFLQLQTSRSNRFSWMGLSDLNQEGTWQWVDGSPLSPSFQRYWNSGEPNNSGNEDCAEFSGSGWNDNRCDVDNYWICKKPAACFRDE",stoichiometry N,[2],4
